In patent US20110231942A1:

Target: Wnt3a
Assay: cell-based or functional assay

## Human Tiki2 (from UniProt A6NFA1 20-486) (enzyme)
  decrease in Wnt3a acylation (metabolic labeling with az-15 and 35S-Met/Cys, click chemistry with ALK-Rho on immunoprecipitated Wnt3a): 31%
